Tests used:
Assay in all cases: cell-based or functional assay
[1] = molecular target: purified Sp1 (Promega Corp.) (UniProt P08047)
[2] = molecular target: Sp1 in nuclear extracts of primary rat striatal neurons (endogenous) (rat) (UniProt Q01714)
[3] = molecular target: Sp1 in human brain tissue (endogenous) (human) (UniProt P08047)
Chain of Sp1 in human brain tissue (endogenous) (human) (P08047 2-785 limits assumed): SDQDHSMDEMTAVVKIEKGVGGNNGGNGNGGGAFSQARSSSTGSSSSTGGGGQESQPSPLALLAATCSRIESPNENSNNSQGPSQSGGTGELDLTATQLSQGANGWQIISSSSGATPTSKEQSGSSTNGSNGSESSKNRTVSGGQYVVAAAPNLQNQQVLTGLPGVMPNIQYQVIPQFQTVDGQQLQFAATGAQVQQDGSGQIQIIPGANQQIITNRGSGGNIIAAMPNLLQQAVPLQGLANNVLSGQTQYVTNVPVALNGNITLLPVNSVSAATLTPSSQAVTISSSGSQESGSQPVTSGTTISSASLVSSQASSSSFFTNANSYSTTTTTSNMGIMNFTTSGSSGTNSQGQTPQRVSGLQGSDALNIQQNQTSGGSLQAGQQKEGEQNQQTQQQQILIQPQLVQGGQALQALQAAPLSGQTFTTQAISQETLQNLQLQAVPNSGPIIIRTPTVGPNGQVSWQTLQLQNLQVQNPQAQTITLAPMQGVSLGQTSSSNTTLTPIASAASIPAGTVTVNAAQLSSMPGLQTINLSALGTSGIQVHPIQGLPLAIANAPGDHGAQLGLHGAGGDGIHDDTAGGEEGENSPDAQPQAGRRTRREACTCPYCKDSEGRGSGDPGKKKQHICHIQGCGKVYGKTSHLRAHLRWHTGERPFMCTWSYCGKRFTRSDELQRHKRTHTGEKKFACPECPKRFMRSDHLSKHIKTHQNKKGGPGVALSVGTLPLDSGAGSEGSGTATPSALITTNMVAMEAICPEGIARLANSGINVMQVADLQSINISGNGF

Chain of purified Sp1 (Promega Corp.) (P08047 8-785 limits assumed): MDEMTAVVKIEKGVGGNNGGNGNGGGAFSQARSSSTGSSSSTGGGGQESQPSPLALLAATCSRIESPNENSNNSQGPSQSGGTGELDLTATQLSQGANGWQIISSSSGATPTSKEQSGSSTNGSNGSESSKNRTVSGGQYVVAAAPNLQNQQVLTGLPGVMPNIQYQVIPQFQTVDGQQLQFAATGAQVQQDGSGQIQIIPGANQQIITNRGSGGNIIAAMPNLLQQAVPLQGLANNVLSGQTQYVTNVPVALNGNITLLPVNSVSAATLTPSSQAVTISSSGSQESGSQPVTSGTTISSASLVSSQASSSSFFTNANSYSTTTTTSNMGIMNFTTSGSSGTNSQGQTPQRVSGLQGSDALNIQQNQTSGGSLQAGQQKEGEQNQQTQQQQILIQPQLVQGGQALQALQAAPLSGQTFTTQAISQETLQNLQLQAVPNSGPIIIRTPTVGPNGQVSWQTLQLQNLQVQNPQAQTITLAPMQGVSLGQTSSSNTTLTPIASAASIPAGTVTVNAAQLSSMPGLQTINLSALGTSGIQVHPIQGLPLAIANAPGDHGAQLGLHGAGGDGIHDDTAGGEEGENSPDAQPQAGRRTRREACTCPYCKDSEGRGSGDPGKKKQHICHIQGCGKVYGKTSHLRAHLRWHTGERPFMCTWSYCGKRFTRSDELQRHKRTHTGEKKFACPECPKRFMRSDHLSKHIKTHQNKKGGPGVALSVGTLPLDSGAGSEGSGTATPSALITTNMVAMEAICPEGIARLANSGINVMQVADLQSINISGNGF
Chain of Sp1 in nuclear extracts of primary rat striatal neurons (endogenous) (rat) (Q01714 2-786 limits assumed): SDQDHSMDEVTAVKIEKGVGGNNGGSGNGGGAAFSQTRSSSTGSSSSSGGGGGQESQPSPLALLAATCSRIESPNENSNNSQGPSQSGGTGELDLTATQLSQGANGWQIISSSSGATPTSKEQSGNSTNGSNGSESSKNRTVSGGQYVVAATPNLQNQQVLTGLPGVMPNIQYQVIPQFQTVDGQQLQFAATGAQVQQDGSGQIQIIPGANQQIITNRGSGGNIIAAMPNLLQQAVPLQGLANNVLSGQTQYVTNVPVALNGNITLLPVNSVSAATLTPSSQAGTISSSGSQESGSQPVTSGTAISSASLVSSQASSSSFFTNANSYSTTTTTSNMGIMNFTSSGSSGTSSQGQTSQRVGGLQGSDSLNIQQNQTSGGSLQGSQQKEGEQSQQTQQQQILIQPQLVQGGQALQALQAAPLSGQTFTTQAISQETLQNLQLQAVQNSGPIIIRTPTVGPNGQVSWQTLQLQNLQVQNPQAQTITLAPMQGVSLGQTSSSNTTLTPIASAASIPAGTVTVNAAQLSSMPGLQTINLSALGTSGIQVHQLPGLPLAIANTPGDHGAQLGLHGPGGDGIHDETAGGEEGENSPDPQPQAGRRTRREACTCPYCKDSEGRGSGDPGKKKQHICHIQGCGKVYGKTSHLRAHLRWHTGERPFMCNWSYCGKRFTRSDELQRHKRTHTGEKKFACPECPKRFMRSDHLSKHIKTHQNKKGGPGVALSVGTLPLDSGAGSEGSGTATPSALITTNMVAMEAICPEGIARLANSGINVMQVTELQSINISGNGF

Substance: glutathione S-transferase (GST)-huntingtin fusion protein with 20 glutamines (from UniProt P42858 1-88)
- reduction in Sp1 binding to a labeled consensus Sp1 site (EMSA with purified proteins) [1]: 20%

Substance: glutathione S-transferase (GST)-huntingtin fusion protein with 51 glutamines (from UniProt P42858 1-88)
- inhibition of Sp1 binding to a labeled consensus Sp1 site (EMSA with purified proteins) [1]: 70%

Substance: mutant full-length huntingtin with 75 glutamines (HttQ75), P42858 1-3142
- inhibition of Sp1 binding to a labeled D2 promoter fragment (EMSA, nuclear extracts of transfected striatal cells) [2]: 55%

Substance: huntingtin in human HD brain tissue (endogenous) (from UniProt P42858 1-3142)
- decrease of Sp1 binding to its D2 binding site (EMSA, nuclear extracts of caudate, grade 1 HD brain against control brain) [3]: 39%
- decrease of Sp1 binding to its D2 binding site (EMSA, nuclear extracts of caudate, grade 4 HD brain against control brain) [3]: 48%

Source: US20040213780A1
